Positions count from the first letter of the chain named. Names and notes keep the numbering of the source.
Tests used:
[1] = target: the molecule itself; test: SEC, self-association into poly-rIgA1
[2] = target: the molecule itself; test: SEC, non-reducing SDS-PAGE and TEM; self-association of rIgA duplexes into poly-rIgA
Description: Before running on SEC, samples were treated with the drugs at indicated concentrations at 37° C. for one hour.
(§1) In the meantime, the SEC column was also equilibrated with PBS supplemented with the reducing agent at the same concentration. For running SEC, 100 μL of the recombinant IgA (concentration varies between 1 mg/mL and 8 mg/mL) or purified native human IgA1 (˜1 mg/mL) was loaded to the column and UV absorption was recorded following elution. Recombinant IgA typically formed two elution peaks: a minor peak of ˜800 kDa poly-rIgA followed by a major peak of ˜170 kDa of monomeric rIgA. The ratios between poly-rIgA and mono-rIgA were calculated as between the corresponding areas under the curve (AUC), and the treatment effect of the thiol agents was judged by the reduction of the poly-rIgA level with a compensatory increase of the mono-rIgA content.
To further investigate specific cysteine residue(s) involved in IgA complexes, expression vectors were constructed to produce recombinant IgA (rIgA) Fc segments of rat and human sequences (FIG. 2, part A) as discussed above. Rat IgA analogs were expressed in BL21 DE3 strain of E. coil and recombinant protein were purified from the bacterial lysate using Histrap HP columns (GE Healthcare) by running fast protein liquid chromatography (FPLC). […]

[3] = target: the molecule itself; test: SEC, self-association into poly-rIgA
Description: as §1
Considering that the fragment contained Cys311 and Cys471 that, in the absence of J-chain and SC, were in their free forms and available for connecting other rIgA units, mutagenesis studies were conducted of these two cysteines. Cys311 and Cys471 were either individually, or together, mutated to serine (S) as discussed above. […] By examining the SEC traces of these mutants, it was noticed that, while the monomers of all variants appeared the same, there were dramatic differences in the poly-rIgA contents. […] Meanwhile, C311S-alone still had poly-rIgA contents, albeit eluted at a different time in SEC than the wild-type protein (FIG. 3, part F). […]

B1: human rIgA1-Fc (human IgA1-Fc CH2-CH3-TP) (other)
chain: SCCHPRLSLHRPALEDLLLGSEANLTCTLTGLRDASGVTFTWTPSSGKSAVQGPPERDLCGCYSVSSVLPGCAEPWNHGKTFTCTAAYPESKTPLTATLSKSGNTFRPEVHLLPPPSEELALNELVTLTCLARGFSPKDVLVRWLQGSQELPREKYLTWASRQEPSQGTTTFAVTSILRVAAEDWKKGDTFSCMVGHEALPLAFTQKTIDRLAGKPTHVNVSVVMAEVDGTCY
notes: Produced in HEK293 cells, secreted; also called hu-rIgA; wild-type rIgA1; not shown: 6xHis-tag at the N-terminus after the IL-2 signal peptide (secreted)
B1: binds [1].

B2: wild-type rat IgA-Fc segment of CH2-CH3-TP (recombinant rat rIgA) (other)
chain: SCSLVCRPRLSLQRPALEDLLLGSEASLTCTLRGLKEPTGAVFTWQPTTGKDAVQKEAVQDSCGCYTVSSVLPGCAERWNNGETFTCTATHPEFETPLTGEIAKVTENTFPPQVHLLPPPSEELALNELVSLTCLVRGFNPKDVLVRWLQGNEELPSESYLVFEPLREPGEGAITYLVTSVLRVSAETWKQGAQYSCMVGHEALPMSFTQKTIDRLSGKPTNVNVSVIMSEGDGICY
notes: Expressed in E. coli BL21 DE3; Two chains form a duplex called mono-rIgA; poly-rIgA is its disulfide-linked self-aggregate; also called mono-rIgA; poly-rIgA; not shown: N-terminal 6xHis-tag from the PET30a vector
B2: binds [2].

B3: rat rIgA C311S single mutant (other)
chain: B2 chain with C75S
notes: also called C311S-alone; not shown: N-terminal 6xHis-tag from the PET30a vector
B3: binds [3].
